From patent US20070184522A1, “Cell death modulation via antagonists of Fasl and Fas activation” (University of Pittsburgh of the Commonwealth System of …, priority 2004, published 2007)

B1: alpha subunit of Met (AlphaMet), amino acid residues 1 to 306, His-tagged (receptor, mouse)
chain: MKAPTVLAPGILVLLLSLVQRSHGECKEALVKSEMNVNMKYQLPNFTAETPIQNVVLHGHHIYLGATNYIYVLNDKDLQKVSEFKTGPVLEHPDCLPCRDCSSKANSSGGVWKDNINMALLVDTYYDDQLISCGSVNRGTCQRHVLPPDNSADIQSEVHCMFSPEEESGQCPDCVVSALGAKVLLSEKDRFINFFVGNTINSSYPPGYSLHSISVRRLKETQDGFKFLTDQSYIDVLPEFLDSYPIKYIHAFESNHFIYFLTVQKETLDAQTFHTRIIRFCSVDSGLHSYMEMPLECILTEKRRKRHHHHHH

Assays:
Fas-Fc = target: T1, Fas-Fc (Mus musculus, UniProt P25446); assay: ELISA of Fas-Fc binding to coated synthetic polypeptides; settings: peptides coated at 1 μg/ml, increasing Fas-Fc, OD 450 nm
T1 construct: purchased R&D
T1 sequence (P25446 22-169 limits assumed): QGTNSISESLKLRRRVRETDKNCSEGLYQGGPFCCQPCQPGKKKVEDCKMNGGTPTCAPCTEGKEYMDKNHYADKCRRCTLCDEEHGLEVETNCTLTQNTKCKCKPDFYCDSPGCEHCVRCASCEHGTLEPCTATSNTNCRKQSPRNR
Text: The Met alpha but not beta chain binds to Fas (FIG. 1a). Various regions of the mouse Met cDNA corresponding to the alpha chain or the extra-cellular portion of the Met beta chain were cloned into expression vectors (pCRT7 TOPO/AlphaMet or pCRT7 TOPO/beta chain) and subjected to in vitro transcription/translation by a rabbit reticolucyte lysate translation system. Empty vector was included in each experiment as a control. The expressed proteins were labeled with ^35S-Methionine. Pull down assays were performed using Fas-Fc, a chimeric molecule which lacks the interacellular cytoplasmic domain and protein-A agarose as described in Wang et al., 2002. FIG. 1b is a schematic presentation of the Met alpha chain and its mutant version used to map the region interacting with Fas. The C-terminus of each construct contains a hexa-Histidine tag for ease of detection. Start cordon ATG was added to the N-terminally truncated constructs. The YLGA (SEQ ID NO:1) motif mutation was prepared by PCR, in which YLGA (SEQ ID NO:1) was replaced by DHER (SEQ ID NO:24). […] In vitro translated ^35S-methionine labeled truncated/mutated AlphaMet proteins were pulled down with 2 μg of Fas-Fc or the same amount of IgG. Lane 1: 10% of AlphaMet input; Lane 2: AlphaMet with IgG control; Lanes 3 to 8: pull down of various truncated AlphaMet proteins; N-terminal 1-106 residues; C-terminal truncated, residues 1-210; alpha chain, residues 1-306; alpha chain with transmembrane domain, 1-338; N-terminally truncated alpha chain, residues 100-306; and N-terminally truncated with addition of the transmembrane domain 100-338, respectively. FIG. 1d depicts the amino acid sequence alignment of alpha chain with FasL, determined using the CLUSTALW, SIM+LALNVIEW, and ALIGN at ExPASy Proteomic Tools (available on the internet at us.expresly.org/tools). The numbers indicate the amino acid residues of the indicated protein. […] Recombinant His-tagged AlphaMet or its mutant version were expressed in E. coli, purified with chromatography, and subjected to Fas-Fc (lanes labeled Fas) or control IgG pull down experiments, and detected by Western blot using anti-His antibody that recognizes C-terminal His. This antibody also recognizes the Fas-Fc which is also tagged at the C-terminus by His. […] Purified recombinant AlphaMet protein (approximately 10 μg) was mixed with Hepa 1-6 cells or Jurkat cell lysates and subjected to immunoprecicitation using anti-Fas antibody or control IgG followed by Western blot using anti His-tag antibody as a probe. […] Peptides (1 μg/ml) were coated into the 96-well microtiter plates in triplicate and after blocking with 1% BSA, increasing amounts of Fas-Fc were added as indicated. The control peptide was a scrambled 13 mer. After washing the wells, anti-human […]-HRP conjugates (1:20,000) were added to detect the bound Fas-Fc using TMD dye and the OD value was determined at a wavelength of 450 nm. One-way ANOVA was carried out for determination of statistical significance.
ELISA. Synthesized polypeptides (Genemed Synthesis, Inc. South San Francisco, Calif.) were dissolved in water and diluted in the coating buffer (0.05M of Sodium Carbonate, 0.02% of Sodium Azide, pH 9.6) to a final concentration of 1 ug/ml. One hundred microliter aliquots were added to coat each well of a 96-well microtitre plate. The coated plates were then washed with PBS-Tween (0.5%) three times. The plates were blotted and dried by tapping upside down on tissue paper. They were blocked using 200 μl of 1% of BSA in PBS solution followed by a 2 hour incubation. Plates were washed another three times, Fas-Fc was added, and the plates were incubated for another 2 hours. The plates were washed three times and anti-human IgM Fc HRP conjugates were included at a final concentration of 1:20,000, and incubated for 1 hour. Plates were washed three times again and ready-to-use TMD was added and incubated for 30 minutes. The color reaction was stopped by 2M of Sulfuric Acid. […]

Fas-Fc / FasL binding = target: T2, Fas-Fc / FasL binding (Mus musculus, UniProt P25446); assay: Competition pull down with Fas-Fc, recombinant AlphaMet and recombinant FasL
T2 construct: purchased R&D
T2 sequence (P25446 22-169 limits assumed): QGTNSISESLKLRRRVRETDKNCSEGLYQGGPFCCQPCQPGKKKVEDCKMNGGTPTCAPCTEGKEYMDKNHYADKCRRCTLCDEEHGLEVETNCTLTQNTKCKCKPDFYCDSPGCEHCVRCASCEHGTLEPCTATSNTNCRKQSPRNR
Procedure: This antibody also recognizes Fas-Fc which is also tagged at the C-terminus by His. In FIG. 2b, a fixed amount of purified recombinant Fas-ligand was added to Fas-Fc in the absence or presence of increasing amounts of AlphaMet as indicated. Samples were subjected to pull down using proteinA agarose followed by Western blot using a polyclonal rabbit anti-FasL antibody. […] Fas ligand (1 μg/ml) was coated in the wells of a microtiter plate (triplicate wells) then 1 μg/ml of Fas-Fc was added in the absence or presence of an increasing amount of the indicated polypeptide. A 13 mer YLGA polypeptide derived from FasL also was synthesized and used. The control peptide was a scrambled 13 mer. Anti human […] conjugates were used to detect the bound Fas-Fc. […] One-way ANOVA was carried out for determination of statistical significance. […] Cells (3×10^5) were plated in 24-well plates having Poly-L-Lysine pre-treated cover glass. 2 μg/ml of Fas ligand was added and the cells were incubated for 30 min on ice. Cells were then washed by PBS twice, and were subjected to immunostaining using anti-Fas ligand antibody and fluorescent microscopy. In Frame A, Fas ligand was not added, in B, only Fas ligand was added, in C-F, Fas ligand was added with different polypeptides as follows: AlphaMet, 12 mer YLGA, control peptide, and YLGA mutated AlphaMet, respectively. […]

| Molecule | Fas binding by ELISA (Fas-Fc) | FasL binding to Fas in pull down (Fas-Fc / FasL binding; fixed FasL, increasing amounts of AlphaMet) | binding of AlphaMet to Fas in presence of FasL (Fas-Fc / FasL binding; increasing amounts of FasL) |
| --- | --- | --- | --- |
| HHIYLGATNYIY [12 mer] | bound Fas strongly |  |  |
| YLGA [YLGA 4 mer] | lower compared to the YLGA 12 mer |  |  |
| B1 |  | blocked the FasL binding to Fas | completely abrogated by increasing amounts of FasL |
